# Source: patent US8394929B2, “Nogo receptor-mediated blockade of axonal growth” (Yale University, priority 2000, dated 2013)
# “Also recorded” adds a separate entry of the source. Like-named read-outs stand apart in the source and are kept apart here.
# B1: NgR-ecto: secreted fragment of amino acid residues 1-348 of the murine NgR, in HEK293T conditioned medium (protein)
# chain: CPGACVCYNEPKVTTSCPQQGLQAVPTGIPASSQRIFLHGNRISHVPAASFQSCRNLTILWLHSNALARIDAAAFTGLTLLEQLDLSDNAQLHVVDPTTFHGLGHLHTLHLDRCGLRELGPGLFRGLAALQYLYLQDNNLQALPDNTFRDLGNLTHLFLHGNRIPSVPEHAFRGLHSLDRLLLHQNHVARVHPHAFRDLGRLMTLYLFANNLSMLPAEVLMPLRSLQYLRLNDNPWVCDCRARPLWAWLQKFRGSSSEVPCNLPQRLADRDLKRLAASDLEGCAVASGPFRPIQTSQLTDEELLSLPKCCQPDAADKASVLE
# modifications: left off: small tags and cut ends
# notes: secreted fragment of amino acid residues 1-348 of the murine NgR, in HEK293T conditioned medium
# B2: AP-Nogo: fusion protein of His6 tag, placental alkaline phosphatase (AP) and the 66 amino acid active domain of Nogo (protein)
# chain: HHHHHHIIPVEEENPDFWNREAAEALGAAKKLQPAQTAAKNLIIFLGDGMGVSTVTAARILKGQKKDKLGPEIPLAMDRFPYVALSKTYNVDKHVPDSGATATAYLCGVKGNFQTIGLSAAARFNQCNTTRGNEVISVMNRAKKAGKSVGVVTTTRVQHASPAGTYAHTVNRNWYSDADVPASARQEGCQDIATQLISNMDIDVILGGGRKYMFRMGTPDPEYPDDYSQGGTRLDGKNLVQEWLAKRQGARYVWNRTELMQASLDPSVTHLMGLFEPGDMKYEIHRDSTLDPSLMEMTEAALRLLSRNPRGFFLFVEGGRIDHGHHESRAYRALTETIMFDDAIERAGQLTSEEDTLSLVTADHSHVFSFGGYPLRGSSIFGLAPGKARDRKAYTVLLYGNGPGYVLKDGARPDVTESESGSPEYRQQSAVPLDEETHAGEDVAVFARGPQAHLVHGVQEQTFIAHVMAFAACLEPYTACDLAPPAGTTDAAHPGRIYKGVIQAIQKSDEGHPFRAYLESEVAISEELVQKYSNSALGHVNCTIKELRRLFLVDDLVDSLK
# B3: GST-Nogo: GST fusion protein of the 66 amino acid lumenal-extracellular fragment of Nogo-A, expressed in E. coli (protein)
# chain: RIYKGVIQAIQKSDEGHPFRAYLESEVAISEELVQKYSNSALGHVNCTIKELRRLFLVDDLVDSLK
# modifications: also: GST fusion protein
# notes: GST fusion protein of the 66 amino acid lumenal-extracellular fragment of Nogo-A, expressed in E. coli
# Experiments:
# [1] = test system: GST-Nogo-induced growth cone collapse; experiment: Blockade of Nogo-induced growth cone collapse in chick DRG cultures; format: cell-based; conditions: GST-Nogo / Nogo-66 as collapsing agent
# Procedure: (§1) For all experiments involving cell culture, the following methods were employed. The culture of embryonic chick E10 and E12 dorsal root ganglion explants and dissociated neurons utilized methods described for E7 dorsal root ganglion cultures (Takahashi et al., (1998) Nature Neurosci. 1, 487-493; Takahashi et al., (1999) Cell 99, 59-69; Goshima et al., (1995) Nature 376, 509-514; Jin & Strittmatter, (1997) J. Neurosci. […]). NGF-differentiated PC12 cells were cultured as described (Strittmatter et al., (1994) J. Neurosci. 14, 2327-2338). Embryonic spinal cord explants (rat E10 or chick E5) were cultured for 7-14 days in the presence of PDGF-AA to induce differentiation of some cells into mature oligodendrocytes (Vartanian et al., (1999) Proc. Natl. Acad. Sci. USA 96, 731-735). The procedure for growth cone collapse assays is identical to that for analysis of Sema3A-induced growth cone collapse (Takahashi et al., (1998) Nature Neurosci. 1, 487-493; Takahashi et al., (1999) Cell 99, 59-69; Goshima et al., (1995) Nature 376, 509-514; Jin & Strittmatter, (1997) J. Neurosci. 17, 6256-6263). The method for analysis of total neurite outgrowth has also been described (Goshima et al., (1995) Nature 376, 509-514; Jin & Strittmatter, (1997) J. Neurosci. 17, 6256-6263; Strittmatter et al., (1994) J. Neurosci. 14, 2327-2338). In outgrowth assays, proteins and peptides were added one hour after plating to minimize any effect on the total number of adherent cells. To test the effect of substrate-bound GST or GST-Nogo, the protein solutions were dried on poly-L-lysine coated glass, washed and then coated with laminin. For E12 cultures, the neuronal identity of cells was verified by staining with anti-neurofilament antibodies (2H3, Develomental Studies Hybridoma Bank) and neurites were traced by observation of rhodamine-phalloidin staining of F-actin in processes.
# In the growth cone collapse assay, the response to Nogo was measured in the presence of various potential antagonistic peptides. […] This blockade supports the hypothesis that Nogo is a primary inhibitory component of CNS myelin.
# For further testing, a synthetic peptide containing amino acid residues #1055-1094 of hNgR, acetylated at the […] was used [hereinafter “Peptide 140”]. […] Antagonist of Nogo-66 inhibitory activity may act by competing for, and thereby blocking NgR binding sites. To determine the antagonistic activity of Peptide 140, the above synthetic form of the peptide was added to E12 chick DRG explant cultures approximately 10 min before application of various concentrations of GST-NogoA (residues #1055-1120), TPA or Sema3A. 30 min later, cultures were fixed and growth cone collapse was assessed following staining with rhodamine-phalloidin.
# [2] = target: chick E12 dorsal root ganglion neurons; experiment: AP-Nogo binding to chick dorsal root ganglion neurons
# Excerpt: (a) is a photograph of a gel and an immunoblot where the His-AP-Nogo (66 amino acid) protein was expressed in HEK293T cells, and purified from conditioned medium on a Nickel-containing resin via the His tag. Purified protein was subjected to SDS-PAGE and stained for total protein with CBB or immunoblotted with anti-Nogo antibodies (anti-Nogo). Molecular weight markers of 200, 116, 97, 65 and 45 kDa are shown at left, and the migration of AP-Nogo at right. (b) is a photograph of dissociated chick E12 dorsal root ganglion neurons that were incubated with 10 nM AP-Nogo or 10 nM AP-Nogo+160 nM GST-Nogo for sixty minutes at 23° C. The cells were washed, fixed and incubated at 60° C. in order to inactivate endogenous AP. Bound AP-Nogo was detected by incubation with nitro blue tetrazolium. Note the intense neuronal staining by AP-Nogo that is displaced by unlabeled ligand. (c) is a graph displaying experimental data where the potency of AP-Nogo and GST-Nogo in E12 chick dorsal root ganglion growth cone collapse assays was assessed as described in the Example section. The EC50 of AP-Nogo was determined to be 1 nM or less. The means±s.e.m. calculated from five to eight determinations are illustrated. (d) is a graph displaying experimental data where the binding of 10 nM AP-Nogo to chick E12 dorsal root ganglion neurons was assessed alone, or in the presence of 100 nM GST-Nogo or in the presence of 4 μM Pep2, which was quantified from experiments as in (b) by the method described in the Example section. The means±s.e.m. calculated from eight determinations are shown. (e) is a graph displaying experimental data where AP-Nogo binding to dorsal root ganglion neurons was measured as a function of AP-Nogo concentration. This is one of six experiments with similar results. (f) is a graph summarizing the data from (e) replotted for Scatchard analysis. The apparent Kd for AP-Nogo binding to E12 chick dorsal root ganglion neurons is 3 nM. […]
# [3] = test system: chick E12 dorsal root ganglion growth cones; experiment: Growth cone collapse assay in chick dorsal root ganglion explants; format: cell-based
# Procedure: as §1
# The expression of recombinant Nogo in HEK293T cells allows a rigorous test of whether this protein has axon outgrowth inhibiting effects. Washed membrane fractions from vector- or hNogo-A-Myc-transfected HEK293T cells were added to chick E12 dorsal root ganglion explant cultures. Growth cone morphology was assessed after a thirty minute incubation at 37° C. by fixation and rhodamine-phalloidin staining.
# Briefly, for growth cone collapse, DRG explants were plated on plastic chamber slides precoated with 100 μg ml^−1 poly-L-lysine and 10 μg ml^−1 laminin. Cultures were grown 14-16 h prior to treatment.
molecule,measurement,setting,value
"Pep2-41: 2-41 fragment of the 66 amino acid region of Nogo, acetylated and amidated at the termini (Ac-RIYKGVIQAIQKSDEGHPFRAYLESEVAISEELVQKYSNS-NH2)",blockade of Nogo-induced growth cone collapse (in words),[1],abolishes GST-Nogo-induced growth cone collapse
same,Ki,"[2]; binding of 10 nM AP-Nogo, read-out: apparent Ki in the binding assay",150 nM
"Peptide 140: synthetic peptide of amino acids #1055-1094 of the human NogoA protein, acetylated and amidated at the termini (Ac-RIYKGVIQAIQKSDEGHPFRAYLESEVAISEELVQKYSNS-NH2; UniProt Q9NQC3 1055-1094, looked up, fragment)",growth cone collapse activity (in words),"[3]; added to DRG explant cultures, thirty minutes",does not induce significant growth cone collapse
same,blockade of Nogo-induced growth cone collapse (in words),[1],significantly blocks growth cone collapse
B1,blockade of Nogo-induced growth cone collapse (in words),[1],prevents Nogo-66-induced growth cone collapse
same,blockade of Nogo-induced growth cone collapse (in words),[1]; listed as NgR ectodomain protein,blocked
same,blockade of Nogo-induced growth cone collapse (in words),[1]; listed as mNgR ectodomain protein,blocked
same,reduction of binding of AP-Nogo-66,"[2]; 0.5 nM AP-Nogo-66, NgR-ecto conditioned medium, dorsal root ganglion neurons",80%
B2,relative potency in growth cone collapse (comparator in the words),[3],slightly more potent than GST-Nogo
same,growth cone collapse (in words),"[3]; conditioned medium, AP-fusion protein final concentration 20 nM, E12 chick DRG",potent growth-cone-collapsing agent
B3,relative potency in growth cone collapse (comparator in the words),[3],even more potent than the urea-extracted protein
same,relative potency in growth cone collapse (comparator in the words),[3]; listed as GST-Nogo-66,two orders of magnitude more potent than Amino-Nogo
same,concentration acutely altering growth cone morphology (as low as),[3]; soluble GST-Nogo purified on glutathione-Sepharose resin,1 nM
same,growth cone morphology (in words),"[3]; soluble form at 100 nM, chick E12 DRG",collapses chick E12 dorsal root ganglion growth cones
same,EC50,"[3]; urea-extracted GST-Nogo, chick E12 dorsal root ganglion neurons, read-out: EC50 growth cone collapsing activity",50 nM
same,blockade of AP-Nogo binding (in words),[2],blocked; also recorded: displaced
